Reference: patent publication US20230360747A1
pKd: −log10 of the molar value.

Target: SARS-CoV-2 RBD (40592-VO8H, Sino Biological), Alexa Fluor 647 labelled (SARS-CoV-2) (UniProt P0DTC2)

Substance: SARS-CoV-2 (2019-nCoV) spike antibody (40150-R007, Sino Biological)
- pKd: 8.02
